Consider five molecules from patent US20250144228A1 (CHILDREN S MEDICAL CENTER, published 2025).

For experiment [1], the target named is T1, P. falciparum MSP-1 subunit p83 (plate-bound, isolated) (Plasmodium falciparum, UniProt Q8I0U8 20-722).
T1 construct: domain: p83
T1 sequence: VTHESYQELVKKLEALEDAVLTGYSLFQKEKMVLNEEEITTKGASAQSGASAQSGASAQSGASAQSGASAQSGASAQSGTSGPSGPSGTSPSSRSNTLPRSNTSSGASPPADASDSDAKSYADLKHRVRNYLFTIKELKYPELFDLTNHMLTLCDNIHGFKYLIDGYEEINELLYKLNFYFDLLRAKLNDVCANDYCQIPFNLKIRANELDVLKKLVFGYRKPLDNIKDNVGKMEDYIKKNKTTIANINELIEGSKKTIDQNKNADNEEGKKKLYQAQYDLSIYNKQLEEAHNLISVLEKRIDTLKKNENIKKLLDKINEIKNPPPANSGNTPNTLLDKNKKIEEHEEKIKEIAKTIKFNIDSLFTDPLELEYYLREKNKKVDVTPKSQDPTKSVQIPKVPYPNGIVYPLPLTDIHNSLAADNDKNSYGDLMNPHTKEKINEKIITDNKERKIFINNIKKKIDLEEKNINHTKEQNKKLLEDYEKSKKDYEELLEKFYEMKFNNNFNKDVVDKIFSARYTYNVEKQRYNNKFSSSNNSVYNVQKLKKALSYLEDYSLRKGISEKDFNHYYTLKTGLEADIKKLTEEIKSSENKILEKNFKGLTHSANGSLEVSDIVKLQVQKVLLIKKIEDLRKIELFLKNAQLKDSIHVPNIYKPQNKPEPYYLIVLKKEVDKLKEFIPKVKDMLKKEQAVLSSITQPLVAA
The experiment is described as follows: Western blot against PfMSP-1 subunits. (In western blotting, separated proteins are transferred to a membrane and probed.)

Experiment [2] addresses T2, P. falciparum MSP-1 subunit p38 (plate-bound, isolated) (Plasmodium falciparum, UniProt Q8I0U8 911-1326).
T2 construct: domain: p38
T2 sequence: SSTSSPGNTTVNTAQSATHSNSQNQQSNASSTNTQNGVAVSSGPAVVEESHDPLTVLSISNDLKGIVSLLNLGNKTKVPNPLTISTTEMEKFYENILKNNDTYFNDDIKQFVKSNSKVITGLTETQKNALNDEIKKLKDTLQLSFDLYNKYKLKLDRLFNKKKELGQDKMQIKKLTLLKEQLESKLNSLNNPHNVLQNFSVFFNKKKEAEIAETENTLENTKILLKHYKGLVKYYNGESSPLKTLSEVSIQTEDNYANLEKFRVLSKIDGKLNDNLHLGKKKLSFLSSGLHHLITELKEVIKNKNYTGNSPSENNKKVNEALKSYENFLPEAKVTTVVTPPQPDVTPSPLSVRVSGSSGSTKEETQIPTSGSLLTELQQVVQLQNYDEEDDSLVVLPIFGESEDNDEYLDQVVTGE
The experiment is described as follows: Western blot against PfMSP-1 subunits.

Experiment [3] deals with T3, MICB expressed on transfected B16F10 melanoma cells (human, UniProt Q29980 23-383).
T3 construct: whole, on cells; also called MICB-transfected cells
T3 sequence (looked up): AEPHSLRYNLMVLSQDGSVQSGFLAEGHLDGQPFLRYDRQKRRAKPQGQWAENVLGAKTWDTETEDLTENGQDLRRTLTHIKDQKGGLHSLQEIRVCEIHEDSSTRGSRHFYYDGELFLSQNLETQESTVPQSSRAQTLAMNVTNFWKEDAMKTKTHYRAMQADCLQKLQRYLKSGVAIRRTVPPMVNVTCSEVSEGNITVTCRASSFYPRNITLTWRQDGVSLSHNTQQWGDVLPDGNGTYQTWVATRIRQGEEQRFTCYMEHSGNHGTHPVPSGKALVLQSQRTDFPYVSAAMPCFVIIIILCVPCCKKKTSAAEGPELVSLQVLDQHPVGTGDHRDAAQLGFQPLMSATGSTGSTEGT
The experiment is described as follows: flow cytometry of transfected B16F10 cells, biotinylated nanobody with streptavidin-PE. On the technique in general: Flow cytometry measures light scatter and fluorescence of single cells or particles in a stream.

Experiment [4] concerns the target T4, P. falciparum MSP-1 subunit p42 (plate-bound, isolated) (Plasmodium falciparum, UniProt Q8I0U8 1327-1699).
T4 construct: domain: p42
T4 sequence: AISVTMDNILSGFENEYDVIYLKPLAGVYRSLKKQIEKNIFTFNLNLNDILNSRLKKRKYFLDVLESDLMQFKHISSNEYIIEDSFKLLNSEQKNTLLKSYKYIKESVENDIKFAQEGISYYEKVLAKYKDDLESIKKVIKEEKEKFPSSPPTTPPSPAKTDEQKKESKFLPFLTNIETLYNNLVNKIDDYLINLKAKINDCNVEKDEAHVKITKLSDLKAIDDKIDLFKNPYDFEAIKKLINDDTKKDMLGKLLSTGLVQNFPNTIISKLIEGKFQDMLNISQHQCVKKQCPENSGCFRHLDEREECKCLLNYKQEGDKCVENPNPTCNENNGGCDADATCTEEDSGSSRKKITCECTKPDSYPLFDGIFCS
The experiment is described as follows: Western blot against PfMSP-1 subunits.

B1: anti-p42 G11 VHH (P. falciparum MSP-1 specific) (VHH)
VHH: QVQLVETGGGLVQAGGSLRLSCVVSGRSLILYGMGWFRQAPGKEREFVAGIVWNGGWTYYADSVKGRFTISRDTAKNTVYLQMNSLKPEDTAVYSCAAGPGDGRRRVAPAEYNYWGQGTQVTVSS
As to B1, the binding result in experiment [1] and in experiment [2] was “no binding” in each case.

B2: anti-MICA VHH nanobody clone A1 (VHH)
VHH: QVQLVESGGGLVQPGGSLRLSCAASGFTLDYYDIGWFRQAPGKEREGVSCITSSDGSTYYADSVKGRFTISRDNAKNTVYLQMNSLKPEDTAVYYCAADCTKPQWKSKTEAWGQGTQVTVSS
In the case of B2, the binding result in experiment [3] was “no binding”.

B3: anti-p83 B4 VHH (P. falciparum MSP-1 specific) (VHH)
VHH: QLQLVESGGGLAQAGGSLRLSCAASGRTSSTKPMGWFRQAPGLEREFVASISWLGGSTLYSDSVKGRFTISRDNAKNTVYLQMNSLKSEDTAVYYCAGGTSAYSGRDSSRYEYWGQGTQVTVSS
notes: also called anti-p84 B4
Consider B3, for which the binding result in experiment [2] and in experiment [4] was “no binding” throughout.

B4: anti-MICA VHH nanobody clone H3 (VHH)
VHH: QVQLVETGGGLVQAGGSLRLSCAASGRTFSSYAMGWFRQAPGKEREFVAGISWSGGSTYYGDSVKGRFTISRDNAKNTVYLLMNSLKPEDTAVYYCAADLVRSYGSSWPSLFQFRNPEDVQDGMDYWGKGTLVTVSS
In the case of B4, the binding result in experiment [3] is on record as “no binding”.

B5: anti-p42 A6 VHH (P. falciparum MSP-1 specific) (VHH)
VHH: QVQLVESGGGLVQAGGSLRLSCAASARTFSYYGAAWFRQAPGKEREFVAAVSWNGDDTYYADSVKGRFTISRDNTKNTVSLQMNALKPEDTAVYYCEAAAYGRDWRQSANYVYWGQGTQVTVSS
As for B5, the binding result in experiment [1] and in experiment [2] was “no binding” throughout.
